The Kd is the concentration at which binding is half-saturated. Read a low Kd as a tighter complex.

Among the targets are H3K14ac peptide; H3K9ac peptide; H4K5ac peptide; H4K8ac peptide.
What all share (assay): SPR

B1: triple Tudor domains (3TD) of Drosophila Eggless/SetDB1, wild type (domain or fragment)
chain: SDYVHEVPPPGEIVRPPIQLGETYYAVKNKAIASWVSIKVIEFTESTAINGNTMKSYKIRYLNTPYQMIKTVTAKHIAYFEPPPVRLTIGTRVIAYFDGTTLSRGKDKGVVQSAFYPGIIAEPLKQANRYRYLIFYDDGYTQYVPHRDVRLVCQASEKVWEDVHAASRDFIQKYVEKYSVDRPMVQCTRGQSMTTESNGTWLYARVIDIDCSLVLMQFEGDKNHTEWIYRGSLRLGPVFRETQNNMNSSSAQQLRVP
B1: the dissociation constant Kd in the assay with H3K14ac peptide was determined as 339 µM; in the assay with H3K9ac peptide it was 823 µM; with H4K5ac peptide, 925 µM; with H4K8ac peptide it was 654 µM.

For the origin of these results see article PMC11331121.
